Target: Dock8 (endogenous) (UniProt Q8C147)
Experiment: anti-Flag co-IP, Dock8 immunoblot
Conditions: reference: Flag-Mob1B wild type; sites T12,T35

Substance: Flag-Mob1B (previously MOBKL1A) (from UniProt Q7L9L4) Flag-Mob1B[Thr12Ala/Thr35Ala]
- binding against the reference: lost
